Data published in patent US20250313621A1.

Experiments:
[1] = target: V5His-huPAR2 on Flp-In CHO cells (human) (UniProt P55085); experiment: FACS titration on CHO_V5HIS-huPAR2 cells versus CHO parental cells (flat), RLU, axis Ab [nM]
[2] = target: Wildtype human PAR 1 (human) (UniProt P25116); experiment: cell-based or functional assay
[3] = target: Wildtype human PAR2 expressed on cells (human) (UniProt P55085); experiment: cell-based or functional assay
Sequence of Wildtype human PAR2 expressed on cells (human) (P55085 37-397 limits assumed): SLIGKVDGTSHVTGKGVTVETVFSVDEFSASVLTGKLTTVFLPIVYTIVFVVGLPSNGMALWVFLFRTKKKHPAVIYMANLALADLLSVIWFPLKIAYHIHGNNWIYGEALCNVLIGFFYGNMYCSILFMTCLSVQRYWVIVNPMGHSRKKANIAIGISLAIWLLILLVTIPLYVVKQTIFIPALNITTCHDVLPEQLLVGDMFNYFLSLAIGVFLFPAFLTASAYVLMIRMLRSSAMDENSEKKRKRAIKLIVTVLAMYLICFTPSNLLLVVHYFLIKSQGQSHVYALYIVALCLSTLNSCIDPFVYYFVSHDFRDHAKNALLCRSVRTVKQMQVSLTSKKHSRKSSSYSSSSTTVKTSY

Sequence of Wildtype human PAR 1 (human) (P25116 42-425 limits assumed): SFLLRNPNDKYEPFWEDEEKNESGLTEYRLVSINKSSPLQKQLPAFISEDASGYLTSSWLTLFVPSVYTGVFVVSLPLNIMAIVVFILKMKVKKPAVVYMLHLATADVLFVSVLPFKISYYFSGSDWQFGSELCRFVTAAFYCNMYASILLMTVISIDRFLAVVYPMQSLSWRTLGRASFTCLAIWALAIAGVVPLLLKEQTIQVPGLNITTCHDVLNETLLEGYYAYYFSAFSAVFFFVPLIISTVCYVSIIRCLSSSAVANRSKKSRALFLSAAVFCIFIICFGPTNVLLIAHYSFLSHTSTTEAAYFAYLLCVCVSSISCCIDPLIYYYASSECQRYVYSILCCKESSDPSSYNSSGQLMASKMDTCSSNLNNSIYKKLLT
Sequence of V5His-huPAR2 on Flp-In CHO cells (human) (P55085 37-397 limits assumed): as the sequence (P55085 37-397 limits assumed) above

EC50 [1]: 6.8 nM
Human PAR1 SFLLR IC50, IP-One [2]: > 1000 nM
SFLLR fold inhibition, human PAR1, IP-One [2]: 0 fold
% Max Inhibition, AP challenge, IP-One [3]: 100%
% Max Inhibition, Bovine Trypsin challenge, IP-One [3]: 0%
Substance: MAB3949 (antibody)
